Legend:
[1] = tested on: total splenocytes; assay: Ex vivo recall responses of splenocytes, week 8 post bone marrow transplant; format: cell-based, mouse
Description: (§1) On week 8 post bone marrow cell transplantion, total splenocytes (5×10^5 cells/well) were cultured in the presence of medium alone (no stimulation), anti-CD3 (1 ug/ml), DBY peptide (10 ug/ml), irradiated male splenocytes (5×10^5 cells/well), or irradiated female splenocytes (5×10^5 cells/well). The individual splenocyte samples were cultured separately in triplicate wells. For T cell proliferative response, the cultures were pulsed with 1 uCi of tritiated thymidine at 24 hours and harvested at 72 hours post culture initiation. The statistical analysis carried out on the data is one-way ANOVA followed by Dunnett's post test as compared to the mice receiving male CD45.1+ bone marrow cells plus Control Ig treatment, p-values*<0.05, **<0.01,***<0.001, and #<0.0001.
as §1, with “transplant,” for “transplantion,”, “For” for “For T cell proliferative response,”, “cytokine cultures, the supernatants” for “cultures”, “collected” for “pulsed with 1 uCi of tritiated thymidine at 24 hours and harvested”, “initiation and the level of secreted cytokine was determined via LiquiChip.” for “initiation.”
These same populations of cells were analyzed at week 8 within the spleen. In addition, the proliferative and secreted cytokine responses of total splenocytes in ex vivo recall cultures were tested in the presence of medium alone, anti-CD3 (1 ug/ml), the HY antigen DBY peptide (NAGFNSNRANSSRSS; Genemed Synthesis; San Antonio, Tex.) (10 ug/ml), irradiated male splenocytes (1:1 ratio), or irradiated female splenocytes (1:1 ratio).

[2] = tested on: male DBA-1 mice; assay: Established collagen-induced arthritis (CIA), therapeutic regimen; format: in vivo, mouse
Description: Bovine type II collagen (CII) (RUNMC in house production, batch 03-04-08) at a concentration of 2 mg/ml in acetic acid 0.05M was emulsified in equal volumes of Freund's complete adjuvant (2 mg/ml of Mycobacterium tuberculosis strain H37Ra; Difco, Detroit, Mich.).
On day 0, 10-12 week old male DBA-1 mice (Janvier Elevage, France) (n=95) were immunized i.d. at the base of the tail with 100 μg of bovine CII. On day 21, mice received an intraperitoneal booster injection of 50 μg of CII dissolved in phosphate buffered saline (PBS), and the onset of arthritis occurred a few days after this booster.
Joint inflammation in each paw was scored visually, using a scale of 0-2 per paw with a maximal score of 8 per animal: 0=non inflamed, 1=mild inflammation, 1.5=marked inflammation, and 2=severe inflammation. Scoring was performed three times a week.
Treatment was started in established CIA early after onset of disease (i.e. therapeutic regimen), when the macroscopic scores per animal were between 0.25 and 1.25 (on a scale of 0-8). The i.p. injections were given three times per week for two weeks, after which the study was terminated and mice were terminally bled to collect serum. Thereafter, the knee and ankle joints were collected and stored in formalin. Histology was scored for inflammation and destruction on an arbitrary scale of 0-3, for five different parameters: • Joint inflammation • Cartilage proteoglycan (PG) depletion • Chondrocyte death • Cartilage erosion • Bone erosion
1. Negative control: PBS 2. Negative control mIgG2A (Bioxcell, BE0085): 10 mg/kg 3. C1ORF32 ECD-Fc (SEQ ID NO:42): 10 mg/kg 4. C1ORF32 ECD-Fc (SEQ ID NO:42): 5 mg/kg 5. Positive control: Enbrel (Wyeth, F01421) 5 mg/kg
Joints were fixed for at least 4 days in 4% formaldehyde, decalcified in 5% formic acid, and subsequently dehydrated and embedded in paraffin. Standard frontal sections of 7 μm were mounted on SuperFrost slides (Menzel-Glaser, Braunschweig, Germany). Haematoxylin and eosin (H&E) staining was performed to study joint inflammation. The severity of inflammation in the joints was scored on a scale of 0-3 (0=no cells, 1=mild cellularity, 2=moderate cellularity, and 3=maximal cellularity). To study proteoglycan (PG) depletion from the cartilage matrix, sections were stained with safranin O (SO) followed by counterstaining with fast green. Depletion of PG was determined using an arbitrary scale of 0-3, ranging from normal, fully stained cartilage to destained cartilage, fully depleted of PGs. Chondrocyte death was scored on a scale of 0-3 ranging from no loss of chondrocyte nuclei to complete empty cartilage surface. The degree of cartilage surface erosion was scored on a scale of 0-3, ranging from no damage to complete loss of articular cartilage. Bone destruction was graded separately on a scale of 0-3, ranging from no damage to the complete loss of bone structure. Histopathological changes in the joint were scored on three semiserial sections of the joint spaced 70 μm apart. Scoring was performed in a blindfolded manner.
Statistical analysis: Disease course data was analyzed using one-way ANOVA with repeated measures, with a Bonferroni's post-test of selected pairs to determine statistical differences between C1ORF32 ECD-Fc (SEQ ID NO:42) and Enbrel treated mice, each as compared to Control Ig (IgG2a) treated group.

B1: C1ORF32 ECD-Fc (SEQ ID NO:42): fusion protein of human C1ORF32 ECD fused to mouse immunoglobulin Fc (human-mouse fusion protein) (protein)
chain: LQVTVPDKKKVAMLFQPTVLRCHFSTSSHQPAVVQWKFKSYCQDRMGESLGMSSTRAQSLSKRNLEWDPYLDCLDSRRTVRVVASKQGSTVTLGDFYRGREITIVHDADLQIGKLMWGDSGLYYCIITTPDDLEGKNEDSVELLVLGRTGLLADLLPSFAVEIMGSENLYFQGSGEPRGPTIKPCPPCKCPAPNLLGGPSVFIFPPKIKDVLMISLSPIVTCVVVDVSEDDPDVQISWFVNNVEVHTAQTQTHREDYNSTLRVVSALPIQHQDWMSGKEFKCKVNNKDLPAPIERTISKPKGSVRAPQVYVLPPPEEEMTKKQVTLTCMVTDFMPEDIYVEWTNNGKTELNYKNTEPVLDSDGSYFMYSKLRVEKKNWVERNSYSCSVVHEGLHNHHTTKSFSRTPGK
modifications: Fusion protein human C1ORF32-ECD fused to mouse IgG2a Fc
- inflammatory cytokines (IFN-gamma, IL-17, GM-CSF, IL-12, IL-2 and TNF-alpha) ([1]; activation with male irradiated splenocytes or DBY peptide, vs Ig control treated mice): significantly lower levels
- IFNg, IL-17, IL-2, IL-12 and GM-CSF secretion ([1]; cultures stimulated with male irradiated splenocytes): inhibitory trend
- level of IL-10 and IL-4 secreted ([1]; splenocytes of treated mice, in response to male or female splenocytes): significantly increased
- clinical (macroscopic) scores of arthritis ([2]; 5 mg/kg i.p. 3x/wk for 2 wks): did not demonstrate any effect
- clinical (macroscopic) scores of arthritis ([2]; 10 mg/kg i.p. 3x/wk for 2 wks, p<0.001 vs mIgG2a): significantly reduced the clinical scores of arthritis
- histological arthritis pathology of ankle joints ([2]; 10 mg/kg, after two weeks of therapy, did not reach statistical significance): trend of reduced arthritis pathology
- results over three CIA studies ([2]; three studies): excellent results in two studies and weak results in one study
